This series addresses T1, RadA S372A (Escherichia coli, UniProt P24554 1-460, S372A).
T1 sequence: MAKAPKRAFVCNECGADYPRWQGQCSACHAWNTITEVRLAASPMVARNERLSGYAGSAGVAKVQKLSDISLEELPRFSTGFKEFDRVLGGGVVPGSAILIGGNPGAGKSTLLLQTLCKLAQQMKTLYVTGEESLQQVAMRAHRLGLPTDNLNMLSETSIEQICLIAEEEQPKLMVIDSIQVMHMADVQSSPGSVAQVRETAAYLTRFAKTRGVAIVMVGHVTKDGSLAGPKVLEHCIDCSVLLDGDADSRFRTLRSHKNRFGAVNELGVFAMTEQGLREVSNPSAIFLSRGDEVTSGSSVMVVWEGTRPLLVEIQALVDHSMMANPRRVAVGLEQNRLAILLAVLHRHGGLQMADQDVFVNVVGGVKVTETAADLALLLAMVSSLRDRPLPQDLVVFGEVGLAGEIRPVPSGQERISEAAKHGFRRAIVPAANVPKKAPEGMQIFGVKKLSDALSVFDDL
The experiment in a line: EMSA; 1 mM ADP; retains DNA binding; 50 mM Tris-HCl pH 7.5, 10 mM MgCl2, 0.1 mM EDTA, 75 mM NaCl, 5 mM DTT, 100 ug/ml BSA, 1 mM nucleotide, 100 fmol DNA, 37 C for 20-30 min; 6% TBE polyacrylamide gel at room temperature. Particulars: protein: recombinant; tags: eXact tag cleaved; 2 extra N-terminal residues Thr-Ser remain; chain copies: 6. A general note: Mobility shift assays separate free from complexed probe on a gel.

As for TTTTTTTTTTTTTTTTTTTTTTTTTTTTTT (ssDNA) [poly(dT)30], the binding result is “binds”.

Source of the values: article PMC4786428, “Recombinational branch migration by the RadA/Sms paralog of RecA in Escherichia coli”.
